Measured values reported in the supplement of paper PMC9170038.

System: MS2 coat protein
Assay: apparent KD of MS2 coat protein; designed switch direction (-1 OFF switch, 1 ON switch): -1; higher = weaker reporter binding
Method in brief: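 Each step of the titration lasted 0.8–1.5 h at the lowest concentration and 10–20 min at the highest. The protein, SNAP-549-labelled MS2 coat protein, went from 0.7 or 1.5 nM doubling to 3 µM over RNA switches transcribed on Illumina chips by stalled E. coli RNA polymerase. Normalised cluster fluorescence was curve-fitted, and the per-design median over clusters is given as apparent KD.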

[1] = Eterna round: R95, input ligand: microRNA oligo, concentration not stated
[2] = input ligand: microRNA oligo, concentration not stated
[3] = Eterna round: R95, input ligand: FMN 200 uM
[4] = Eterna round: R95, input ligand: none

| Sequence | apparent KD of MS2 coat protein [1] | apparent KD of MS2 coat protein (input ligand: FMN 200 uM) | apparent KD of MS2 coat protein (input ligand: none) | further results |
| --- | --- | --- | --- | --- |
| GUGAAACAUGAGGAUCACCCAUGUCAGGAUAUGAUACUAUGUACUUCGGUACAUAGUAUCAGAAGGGACAGUGA [Ex1-3: 3] (puzzle: Exclusion 1) | 74.4 nM | – | – | – |
| CUCAUGUGAGGAUAUCAGUAGUAAAAAAAUAAAAUUACUACUGAGAAGGCACAUGAGGAUCACCCAUGUGCCAA [EX4 337: Super Stable 37] (Eterna round: R96, puzzle: Exclusion 4) | – | – | – | apparent KD of MS2 coat protein [2]: 12.8 nM |
| CCUUUGUGAGGAUAUCGUUGGCCAGACAUGAGGAUCACCCAUGUGGCUGGAACUCAUGGACGAGAAGGCACCUCUU [Eternabot (L2) Solution 52] (Eterna round: R97, puzzle: Exclusion 5) | – | 338 nM | 399 nM | – |
| UGAGCAUCAGGAUAUACAAGGCGACCGUGAGGUCGAGGGUUACAUGAGGAUCACCCAUGUAGAAGGGAUGUUCU [jl-ex2-4.09] (Eterna round: R97, puzzle: Exclusion 2) | – | 196 nM | 43.4 nM | – |
| GGGCCCGGAGGAUAUACAUGAGGAUCACCCAUGUAUUUGGGCCCUAUUGGGCCCGGGUGUAGAAGGCCGGGCCC [-42.1, -39.5 kcal, A 19%, 5abis,0] (Eterna round: R97, puzzle: Exclusion 3) | – | 17.3 nM | 14.6 nM | – |
| AAAUGCGAGCGAGGAUAUCAGAAAGGAAGUGUAUGAGAAGGCGCACCGCGGGUAUCCGGACAUGAGGAUCACCCAUGUAGGCUC [PowerStrip EXNG 1.28] (Eterna round: R96, puzzle: Exclusion NG 1) | – | 23.2 nM | 29.5 nM | apparent KD of MS2 coat protein [2]: 17.8 nM |
| AAGUACCGUCACGAAAGUGAUGGUACAACAAGCAAAUGUACAUGAGGAUCACCCAUGUCCUCAAUUGCUCGUCUUAU [Sensor 3 - 57] (puzzle: Sensor v3, turn-off variant 2) | 176 nM | – | – | apparent KD of MS2 coat protein [3]: 88.2 nM; apparent KD of MS2 coat protein [4]: 92.8 nM |
| AGUGUGAGGCAGGAUAUGCUAUAUGUACGUAAUGCAGAAGGGUCUACAUGAGGAUCACCCAUGUGUGCGGUUGA [Ex6 #8] (Eterna round: R97, puzzle: Exclusion 6) | – | 309 nM | 289 nM | – |
| CCGUCGAUAGGAUAUACUCCAAGCGAUGGGUGAACCUUUGGACUUGAGGAUCACCCAAGUAGAAGGAUUGACUU [Aorbete] (Eterna round: R97, puzzle: Exclusion 2) | – | 122 nM | 71 nM | – |
| AAUUCACAUGAGGAUCACCCAUGUCAGGAUAUGGUUUCGCGGGUUUCGGUGCGUGAGGCCAGAAGGGACAGCUA (puzzle: Exclusion 1) | 49.2 nM | – | – | – |
| AUACCACGAGGAUAUCGUCUAUAUUACAUGAGGAUCACCCAUGUUAUAUUUGUAAUGUUUCGAGAAGGCGUGUUUU [JR_E5_Sub081] (puzzle: Exclusion 5) | 14.4 nM | – | – | – |
| AUUGGUUUGCGAGGAUAUGCUAAUAGUAAGUAUGCAGAAGGCGCGUUACAUAGAACCUCUAGUUACAUGAGGAUCACCCAUGUU [JR_ExcNG1_Sub038] (Eterna round: R96, puzzle: Exclusion NG 1) | – | – | – | apparent KD of MS2 coat protein [2]: 40.9 nM |
| UGCAAGCUUUAAAGAUCCUACAUGAGGAUCACCCAUGUGCUCGUCUUAUAACGUACUGUGACGAAAGUCACGGUACG [JL TOV1 3.96] (Eterna round: R97, puzzle: Sensor, turn-off variant 1) | – | 324 nM | 315 nM | – |
| AGUAACCGUCACGAAAGUGAUGGUUACAUAAGCAUAUGUACAUGAGGAUCACCCAUGUCCUCAACUGCUCGUUUUAU [Sensor 3 - 56] (puzzle: Sensor v3, turn-off variant 2) | 612 nM | – | – | apparent KD of MS2 coat protein [3]: 292 nM; apparent KD of MS2 coat protein [4]: 349 nM |
| AGCAUGCAGUAGGAUAUCGAUCCACAAUAUGAACGAGAAGGGCUGACAUGAGGAUCACCCAUGUGCGUCCGAAG [Ersoontiri] (Eterna round: R97, puzzle: Exclusion 6) | – | 21 nM | 16.8 nM | – |
